In paper PMC8470133, “Aptasensor for the Detection of Mycobacterium tuberculosis in Sputum Utilising CFP10-ESAT6 Protein as a Selective Biomarker”:

Target: T1, CFP10-ESAT6 antigen (Mycobacterium tuberculosis, UniProt P9WNK5;P9WNK7 2-100;2-95)
T1 chain 1: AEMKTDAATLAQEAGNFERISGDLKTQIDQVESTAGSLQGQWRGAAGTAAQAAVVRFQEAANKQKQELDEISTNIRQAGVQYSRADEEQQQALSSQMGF
T1 chain 2: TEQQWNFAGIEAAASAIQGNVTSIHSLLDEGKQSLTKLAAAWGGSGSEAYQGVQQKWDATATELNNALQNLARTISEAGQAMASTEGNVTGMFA
Assay: circular dichroism; Sensor: antigen incubated 1 h at 37 °C on aptamer electrode blocked with 0.25% BSA, PBS wash; DPV in 0.1 M PBS pH 7.4; CD buffer not given
Conditions: protein: commercial; copies: 1;1; folded

B1: CapApt (CFP10-ESAT6 aptamer) (ssDNA)
DNA: GCCTGTTGTGAGCCTCCTAACCCCATCTTATACGTATATGGACTCATCTCGACCCCCGATAGGCTTGGTACATGCTTATTCTTGTCTCCC
modifications: 5'-NH2
Question: Does B1 bind?
Answer: binds
